{"source": "paper PMC8529501", "about": "(iScience, 2021)", "data": [{"target": "T1, SIRT2 (Homo sapiens, UniProt Q8IXJ6)", "T1 construct": "GST-tagged SIRT2 expressed in E. coli BL21", "T1 sequence (Q8IXJ6 2-389)": "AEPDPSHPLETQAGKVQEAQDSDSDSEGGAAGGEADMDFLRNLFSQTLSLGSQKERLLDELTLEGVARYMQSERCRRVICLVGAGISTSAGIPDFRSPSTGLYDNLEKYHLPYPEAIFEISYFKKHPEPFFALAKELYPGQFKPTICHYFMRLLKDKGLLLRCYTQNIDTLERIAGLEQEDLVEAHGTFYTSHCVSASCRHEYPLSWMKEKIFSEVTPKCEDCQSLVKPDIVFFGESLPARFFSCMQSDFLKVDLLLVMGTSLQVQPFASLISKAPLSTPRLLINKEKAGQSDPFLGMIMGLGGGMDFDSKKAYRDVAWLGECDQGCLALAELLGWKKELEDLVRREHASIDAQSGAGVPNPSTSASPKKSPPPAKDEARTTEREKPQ", "experiment": "ITC; also label-free MST (Kd […]) and native PAGE", "format": "binding", "settings": "not given", "units": {"Kd": "nM"}, "values": [{"compound": "CO[C@H]1C[C@@H]2CC[C@@H](C)[C@@](O)(O2)C(=O)C(=O)N2CCCC[C@H]2C(=O)O[C@H]([C@H](C)C[C@@H]2CC[C@@H](O)[C@H](OC)C2)CC(=O)[C@H](C)/C=C(\\C)[C@@H](O)[C@@H](OC)C(=O)[C@H](C)C[C@H](C)/C=C/C=C/C=C/1C", "note": "[Rapamycin]", "Kd": 9.5}]}, {"target": "mTOR (FRB)-N-Luciferase reporter", "experiment": "split-luciferase complementation (dual element luciferase assay)", "set-up": "unit not given here", "settings": "HEK293T cells, rapamycin treatment; parent: est. 13; read off a plot", "values": [{"compound": "FKBP12-C-Luc (from UniProt P62942) K45R", "response": 13}, {"compound": "FKBP12-C-Luc (from UniProt P62942) K53Q", "response": 10}, {"compound": "FKBP12-C-Luc (from UniProt P62942) K45Q", "response": 1.9}, {"compound": "FKBP12-C-Luc (from UniProt P62942) E108A", "response": 5.5}, {"compound": "FKBP12-C-Luc (from UniProt P62942) K48Q", "response": 5}, {"compound": "FKBP12-C-Luc (from UniProt P62942) K53R", "response": 16}, {"compound": "FKBP12-C-Luc (from UniProt P62942) K48R", "response": 16}]}]}
